Test results from IntAct's records for PubMed 15105431.

B1: T-cell surface antigen CD2 (Homo sapiens), P06729 (parent)
chain: MSFPCKFVASFLLIFNVSSKGAVSKEITNALETWGALGQDINLDIPSFQMSDDIDDIKWEKTSDKKKIAQFRKEKETFKEKDTYKLFKNGTLKIKHLKTDDQDIYKVSIYDTKGKNVLEKIFDLKIQERVSKPKISWTCINTTLTCEVMNGTDPELNLYQDGKHLKLSQRVITHKWTTSLSAKFKCTAGNKVSKESSVEPVSCPEKGLDIYLIIGICGGGSLLMVFVALLVFYITKRKKQRSRRNDEELETRAHRVATEERGRKPHQIPASTPQNPATSQHPPPPPGHRSQAPSHRPPPPGHRVQHQPQKRPPAPSGTQVHQQKGPPLPRPRVQPKPPHGAAENSLSPSSN
partner: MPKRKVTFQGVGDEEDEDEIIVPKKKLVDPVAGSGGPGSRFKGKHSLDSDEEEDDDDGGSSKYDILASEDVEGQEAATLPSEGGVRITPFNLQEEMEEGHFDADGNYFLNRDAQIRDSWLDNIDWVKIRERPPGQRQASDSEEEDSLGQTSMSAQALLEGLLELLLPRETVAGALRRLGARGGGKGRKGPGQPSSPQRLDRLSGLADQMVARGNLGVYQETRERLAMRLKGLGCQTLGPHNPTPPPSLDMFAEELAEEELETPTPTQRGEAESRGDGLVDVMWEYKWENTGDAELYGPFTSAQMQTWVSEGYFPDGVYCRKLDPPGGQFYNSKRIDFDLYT

Variants of: B1
Conditions: with cd2b2_human CD2BP2, O95400

Effect of a mutation on the interaction, decreasing interaction strength:
MSFPCKFVASFLLIFNVSSKGAVSKEITNALETWGALGQDINLDIPSFQMSDDIDDIKWEKTSDKKKIAQFRKEKETFKEKDTYKLFKNGTLKIKHLKTDDQDIYKVSIYDTKGKNVLEKIFDLKIQERVSKPKISWTCINTTLTCEVMNGTDPELNLYQDGKHLKLSQRVITHKWTTSLSAKFKCTAGNKVSKESSVEPVSCPEKGLDIYLIIGICGGGSLLMVFVALLVFYITKRKKQRSRRNDEELETRAHRVATEERGRKPHQIPASTPQNPATSQHPPPPPGHRSQAPSHRPPPPGHRCQHQPQKRPPAPSGTQVHQQKGPPLPRPRVQPKPPHGAAENSLSPSSN [V304C]
MSFPCKFVASFLLIFNVSSKGAVSKEITNALETWGALGQDINLDIPSFQMSDDIDDIKWEKTSDKKKIAQFRKEKETFKEKDTYKLFKNGTLKIKHLKTDDQDIYKVSIYDTKGKNVLEKIFDLKIQERVSKPKISWTCINTTLTCEVMNGTDPELNLYQDGKHLKLSQRVITHKWTTSLSAKFKCTAGNKVSKESSVEPVSCPEKGLDIYLIIGICGGGSLLMVFVALLVFYITKRKKQRSRRNDEELETRAHRVATEERGRKPHQIPASTPQNPATSQHPPPPPGHRSQAPSHRPPPPGHRDQHQPQKRPPAPSGTQVHQQKGPPLPRPRVQPKPPHGAAENSLSPSSN [V304D]
MSFPCKFVASFLLIFNVSSKGAVSKEITNALETWGALGQDINLDIPSFQMSDDIDDIKWEKTSDKKKIAQFRKEKETFKEKDTYKLFKNGTLKIKHLKTDDQDIYKVSIYDTKGKNVLEKIFDLKIQERVSKPKISWTCINTTLTCEVMNGTDPELNLYQDGKHLKLSQRVITHKWTTSLSAKFKCTAGNKVSKESSVEPVSCPEKGLDIYLIIGICGGGSLLMVFVALLVFYITKRKKQRSRRNDEELETRAHRVATEERGRKPHQIPASTPQNPATSQHPPPPPGHRSQAPSHRPPPPGHREQHQPQKRPPAPSGTQVHQQKGPPLPRPRVQPKPPHGAAENSLSPSSN [V304E]
MSFPCKFVASFLLIFNVSSKGAVSKEITNALETWGALGQDINLDIPSFQMSDDIDDIKWEKTSDKKKIAQFRKEKETFKEKDTYKLFKNGTLKIKHLKTDDQDIYKVSIYDTKGKNVLEKIFDLKIQERVSKPKISWTCINTTLTCEVMNGTDPELNLYQDGKHLKLSQRVITHKWTTSLSAKFKCTAGNKVSKESSVEPVSCPEKGLDIYLIIGICGGGSLLMVFVALLVFYITKRKKQRSRRNDEELETRAHRVATEERGRKPHQIPASTPQNPATSQHPPPPPGHRSQAPSHRPPPPGHRWQHQPQKRPPAPSGTQVHQQKGPPLPRPRVQPKPPHGAAENSLSPSSN [V304W]

Effect of a mutation on the interaction, disrupting interaction strength:
MSFPCKFVASFLLIFNVSSKGAVSKEITNALETWGALGQDINLDIPSFQMSDDIDDIKWEKTSDKKKIAQFRKEKETFKEKDTYKLFKNGTLKIKHLKTDDQDIYKVSIYDTKGKNVLEKIFDLKIQERVSKPKISWTCINTTLTCEVMNGTDPELNLYQDGKHLKLSQRVITHKWTTSLSAKFKCTAGNKVSKESSVEPVSCPEKGLDIYLIIGICGGGSLLMVFVALLVFYITKRKKQRSRRNDEELETRAHRVATEERGRKPHQIPASTPQNPATSQHPPPPPGHRSQAPSHRPPPPGHVVQHQPQKRPPAPSGTQVHQQKGPPLPRPRVQPKPPHGAAENSLSPSSN [R303V]
MSFPCKFVASFLLIFNVSSKGAVSKEITNALETWGALGQDINLDIPSFQMSDDIDDIKWEKTSDKKKIAQFRKEKETFKEKDTYKLFKNGTLKIKHLKTDDQDIYKVSIYDTKGKNVLEKIFDLKIQERVSKPKISWTCINTTLTCEVMNGTDPELNLYQDGKHLKLSQRVITHKWTTSLSAKFKCTAGNKVSKESSVEPVSCPEKGLDIYLIIGICGGGSLLMVFVALLVFYITKRKKQRSRRNDEELETRAHRVATEERGRKPHQIPASTPQNPATSQHPPPPPGHRSQAPSHRPPPPGHWVQHQPQKRPPAPSGTQVHQQKGPPLPRPRVQPKPPHGAAENSLSPSSN [R303W]
MSFPCKFVASFLLIFNVSSKGAVSKEITNALETWGALGQDINLDIPSFQMSDDIDDIKWEKTSDKKKIAQFRKEKETFKEKDTYKLFKNGTLKIKHLKTDDQDIYKVSIYDTKGKNVLEKIFDLKIQERVSKPKISWTCINTTLTCEVMNGTDPELNLYQDGKHLKLSQRVITHKWTTSLSAKFKCTAGNKVSKESSVEPVSCPEKGLDIYLIIGICGGGSLLMVFVALLVFYITKRKKQRSRRNDEELETRAHRVATEERGRKPHQIPASTPQNPATSQHPPPPPGHRSQAPSHRPPPPGHYVQHQPQKRPPAPSGTQVHQQKGPPLPRPRVQPKPPHGAAENSLSPSSN [R303Y]
